# Laboratory results: article PMC9452783, “PLK1-mediated phosphorylation of PPIL2 regulates HR via CtIP” (Frontiers in Cell and Developmental Biology, 2022)
# T1: GST-ZNF830 (E. coli, purified) (UniProt Q96NB3 1-372)
# T1 construct: ZNF830, full length, GST-tagged (pGEX6T-1); also called GST-tagged ZNF830; source: E. coli BL21, purified (glutathione-Sepharose 4B)
# T1 sequence (looked up): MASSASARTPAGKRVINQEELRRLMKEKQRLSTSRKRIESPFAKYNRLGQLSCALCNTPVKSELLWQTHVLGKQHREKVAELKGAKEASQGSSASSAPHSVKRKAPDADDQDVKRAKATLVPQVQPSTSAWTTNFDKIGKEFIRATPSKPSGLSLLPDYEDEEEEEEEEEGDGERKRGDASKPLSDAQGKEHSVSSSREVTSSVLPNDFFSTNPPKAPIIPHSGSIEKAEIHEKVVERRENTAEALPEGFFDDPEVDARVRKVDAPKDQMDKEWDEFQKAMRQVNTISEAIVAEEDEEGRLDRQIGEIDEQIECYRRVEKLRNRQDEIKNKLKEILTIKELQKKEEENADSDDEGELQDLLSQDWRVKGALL
# B1: His-PPIL2 241-520 (E. coli, purified) (domain or fragment, UniProt Q13356 241-520, looked up)
# chain: YSTGKVSASFTSTAMVPETTHEAAAIDEDVLRYQFVKKKGYVRLHTNKGDLNLELHCDLTPKTCENFIRLCKKHYYDGTIFHRSIRNFVIQGGDPTGTGTGGESYWGKPFKDEFRPNLSHTGRGILSMANSGPNSNRSQFFITFRSCAYLDKKHTIFGRVVGGFDVLTAMENVESDPKTDRPKEEIRIDATTVFVDPYEEADAQIAQERKTQLKVAPETKVKSSQPQAGSQGPQTFRQGVGKYINPAATKRAAEEEPSTSATVPMSKKKPSRGFGDFSSW
# notes: source: E. coli BL21, purified (Ni-NTA)
# Assays:
# [1] = biological target: B1; assay: pull-down; GST pull-down with purified GST-ZNF830 (full length or fragments) and His-PPIL2 (full length or fragments) expressed in E. coli; western blot and Coomassie brilliant blue; settings: both partners purified
# [2] = biological target: T1, GST-ZNF830 (E. coli, purified); assay: as above; settings: both partners purified
binding result [1],binding result [2],Binder
binds,–,"GST-ZNF830 151-372 (E. coli, purified) (domain or fragment, UniProt Q96NB3 151-372, looked up, source: E. coli BL21, purified (glutathione-Sepharose 4B)) SGLSLLPDYEDEEEEEEEEEGDGERKRGDASKPLSDAQGKEHSVSSSREVTSSVLPNDFFSTNPPKAPIIPHSGSIEKAEIHEKVVERRENTAEALPEGFFDDPEVDARVRKVDAPKDQMDKEWDEFQKAMRQVNTISEAIVAEEDEEGRLDRQIGEIDEQIECYRRVEKLRNRQDEIKNKLKEILTIKELQKKEEENADSDDEGELQDLLSQDWRVKGALL"
–,binds,B1
